Reference: patent US20240115720A1 (Memorial Sloan Kettering, published 2024)

T1: full-length human DLL3 on cells (human, UniProt Q9NYJ7 27-618)
T1 sequence: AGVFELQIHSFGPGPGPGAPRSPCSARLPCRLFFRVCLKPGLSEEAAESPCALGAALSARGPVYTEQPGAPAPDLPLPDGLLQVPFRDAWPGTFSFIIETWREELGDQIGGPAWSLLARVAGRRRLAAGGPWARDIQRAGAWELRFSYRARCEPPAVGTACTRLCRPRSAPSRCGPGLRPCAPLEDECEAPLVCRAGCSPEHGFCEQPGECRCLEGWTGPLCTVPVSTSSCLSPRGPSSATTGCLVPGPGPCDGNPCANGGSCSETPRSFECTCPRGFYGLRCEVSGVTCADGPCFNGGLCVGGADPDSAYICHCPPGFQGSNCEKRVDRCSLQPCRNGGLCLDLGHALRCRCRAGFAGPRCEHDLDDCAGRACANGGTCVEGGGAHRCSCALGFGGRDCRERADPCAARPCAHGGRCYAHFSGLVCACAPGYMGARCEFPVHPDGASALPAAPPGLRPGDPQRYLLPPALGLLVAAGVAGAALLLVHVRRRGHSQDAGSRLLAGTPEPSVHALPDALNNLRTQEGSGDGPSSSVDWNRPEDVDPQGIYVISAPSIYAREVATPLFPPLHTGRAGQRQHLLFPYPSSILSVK

T2: full-length cynomolgous DLL3 on HEK293 cells (cynomolgous, UniProt A0A2K5WSR1 27-585)
T2 construct: also called 293 cyno DLL3
T2 sequence: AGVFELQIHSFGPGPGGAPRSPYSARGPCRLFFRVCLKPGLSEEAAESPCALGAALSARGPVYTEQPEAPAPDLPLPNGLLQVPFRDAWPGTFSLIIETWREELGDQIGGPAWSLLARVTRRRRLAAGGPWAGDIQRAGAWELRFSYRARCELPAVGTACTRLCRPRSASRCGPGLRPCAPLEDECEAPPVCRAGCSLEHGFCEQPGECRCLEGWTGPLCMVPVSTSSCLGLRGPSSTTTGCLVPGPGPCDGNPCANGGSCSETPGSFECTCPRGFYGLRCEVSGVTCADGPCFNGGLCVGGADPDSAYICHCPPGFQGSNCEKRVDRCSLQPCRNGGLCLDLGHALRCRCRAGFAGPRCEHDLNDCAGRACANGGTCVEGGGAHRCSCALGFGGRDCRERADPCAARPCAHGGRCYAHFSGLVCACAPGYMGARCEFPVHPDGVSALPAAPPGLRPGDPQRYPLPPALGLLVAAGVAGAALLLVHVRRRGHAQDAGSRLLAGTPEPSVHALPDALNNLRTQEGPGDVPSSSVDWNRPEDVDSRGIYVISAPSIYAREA

T3: full-length mouse DLL3 on HEK293 cells (mouse, UniProt O88516 33-584)
T3 construct: DLL3'; also called 293 mDLL3
T3 sequence: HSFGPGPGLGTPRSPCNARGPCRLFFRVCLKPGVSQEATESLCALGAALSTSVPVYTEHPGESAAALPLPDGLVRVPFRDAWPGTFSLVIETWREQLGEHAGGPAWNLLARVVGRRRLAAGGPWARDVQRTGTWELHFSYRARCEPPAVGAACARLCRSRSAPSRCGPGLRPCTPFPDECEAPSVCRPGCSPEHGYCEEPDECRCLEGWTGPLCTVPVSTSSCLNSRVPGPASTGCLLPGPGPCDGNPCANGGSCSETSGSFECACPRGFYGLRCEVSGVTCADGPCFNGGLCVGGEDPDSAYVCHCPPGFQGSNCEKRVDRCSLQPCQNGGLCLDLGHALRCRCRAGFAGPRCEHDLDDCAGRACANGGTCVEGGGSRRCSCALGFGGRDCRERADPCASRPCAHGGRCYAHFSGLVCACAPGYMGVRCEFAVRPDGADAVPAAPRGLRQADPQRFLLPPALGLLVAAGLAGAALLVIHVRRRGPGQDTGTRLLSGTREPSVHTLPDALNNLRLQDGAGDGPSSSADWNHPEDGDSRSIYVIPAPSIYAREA

B1: 2-C8-A (antibody, V domains shown)
VH: EVQLVESGGGLVQPGGSQRLSCAASGFTFSSYWMNWVRQAPGKGLEWVANIKEDGSEKYYVDSVKGRFTISRDNAKNSLYLQMNSLRAEDTAVYYCARDPGWAPFDYWGQGTLVTVSS
VL: DIQMSQSPSSLSASVGDRVTITCRASQGISNYLAWFQQKPGKAPKSLIYAASSLQSGVPSKFSGSGSGTDFTLAISSLQPEDFATYYCQQYNSFPYTFGQGTTLEIK
notes: also called 2-C8-A monoclonal antibody
B2: 7-I1-B (antibody, V domains shown)
VH: EVQLVESGGGLVKPGGSLRLSCAASGFTFSNTWMSWVRQAPGKGLEWVGRIKSKSDGGTTDYAAPVKGRFTISRDDSKNTLYLQMNSLKTEDTAVYYCTQYYWNSFDYWGQGTLVTVSS
VL: not shown
notes: also called 7-I1-B mAb
B3: 6-G23-F (antibody, V domains shown)
VH: QVQLVQSGAEVKKPGASVKVSCKASGYTFTSYYIHWVRQAPGQGLEWMGIIDPSDGSTNYAQKFQGRVTMTRDTSTSTVYMELSSLRSEDTAVYYCARDREYNYYGLDVWGQGTTVTVSS
VL: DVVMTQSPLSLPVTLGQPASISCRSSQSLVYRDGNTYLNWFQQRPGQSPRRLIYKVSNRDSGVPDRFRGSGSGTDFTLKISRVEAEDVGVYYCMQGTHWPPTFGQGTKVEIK
notes: also called 6-G23-F monoclonal antibody
B4: 10-O18-A (antibody, V domains shown)
VH: QVQLQESGPGLVKPSETLSLTCTVSGGSINSYYWSWIRQPPGKGLEWIGYIFYSGITNYNPSLKSRVTISLDTSKNQFSLKLSSVTAADTAVYYCARIGVAGFYFDYWGQGTLVTVSS
VL: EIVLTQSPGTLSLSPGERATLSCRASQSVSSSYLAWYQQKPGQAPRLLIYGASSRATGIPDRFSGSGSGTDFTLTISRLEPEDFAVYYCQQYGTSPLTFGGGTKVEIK
notes: Hybridoma monoclonal from Ablexis AlivaMAb Kappa mice; it was captured on anti-mouse Fc sensors and detected with anti-mouse IgG / anti-mouse IgG1 reagents; also called 10-O18-A monoclonal antibody

Each binder was assayed against T1, full-length human DLL3 on cells (assay: cell-based or functional assay).

**Q.** How did the “FAB ZAP % SC16 Max Killing (NCI-H82 cells)” value (“FAB ZAP % SC16 Max Killing” for short) turn out when B1 was run?
**A.** 89 % SC16 Max Killing

**Q.** How did the “FAB ZAP % SC16 Max Killing” value turn out when B2 was run?
**A.** 97 % SC16 Max Killing

**Q.** Which “FAB ZAP % SC16 Max Killing” value does the source give for B3 here?
**A.** 94 % SC16 Max Killing

What follows are binders tested against T1, full-length human DLL3 on cells (assay: flow cytometry, HEK293 cells transfected with full-length human DLL3, mAb 10 µg/ml).
Description: (§1) For this purpose, HEK293 cells were transfected with plasmid DNA encoding full-length human, mouse or cynomolgous DLL3 and used in the experiment. Briefly […] transfected HEK293 cells or NCI-H82 primary cells were added in FACS buffer PBS 0.5% BSA to the wells of a 96 well U bottom plate and purified monoclonal added to 10 μg/ml. After 30 minutes incubation at 4° C. the cells were washed 3 times in FACS buffer and incubated with a PE labelled F(ab)2 anti-mouse IgG H and L 2nd stage. After another 30 minutes incubation at 4° C. the cells were washed three times in FACS buffer and analyzed on the flow cytometer. Data are presented at the ratio of the Mean Fluorescent Intensity for the monoclonal divided by the background staining with the 2nd stage.

**Q.** Which “ratio of the Mean Fluorescent Intensity for the monoclonal divided by the background staining with the 2nd stage” value does the source give for B1 here?
**A.** 7.71

**Q.** For B2, which “ratio of the Mean Fluorescent Intensity for the monoclonal divided by the background staining with the 2nd stage” value is on record?
**A.** 9.74

**Q.** Which “ratio of the Mean Fluorescent Intensity for the monoclonal divided by the background staining with the 2nd stage” value does the source give for B3 here?
**A.** 6.33

**Q.** With B4 as the binder, how does the “ratio of the Mean Fluorescent Intensity for the monoclonal divided by the background staining with the 2nd stage” value read?
**A.** 4.74

These binders were tested against T1, full-length human DLL3 on cells (assay: flow cytometry, NCI-H82 cells (endogenous human DLL3), mAb 10 µg/ml).
Description: as §1

**Q.** B1 was tested. Which “ratio of the Mean Fluorescent Intensity for the monoclonal divided by the background staining with the 2nd stage” value did it give?
**A.** 11.9

**Q.** How did the “ratio of the Mean Fluorescent Intensity for the monoclonal divided by the background staining with the 2nd stage” value turn out when B2 was run?
**A.** 19.2

**Q.** B3 was tested. Which “ratio of the Mean Fluorescent Intensity for the monoclonal divided by the background staining with the 2nd stage” value did it give?
**A.** 11.1

**Q.** For B4, which “ratio of the Mean Fluorescent Intensity for the monoclonal divided by the background staining with the 2nd stage” value is on record?
**A.** 9.4

Each binder was assayed against T2, full-length cynomolgous DLL3 on HEK293 … (assay: flow cytometry, HEK293 cells transfected with full-length cynomolgous DLL3, mAb 10 µg/ml).
Description: as §1

**Q.** Which “ratio of the Mean Fluorescent Intensity for the monoclonal divided by the background staining with the 2nd stage” value does the source give for B1 here?
**A.** 15

**Q.** With B2 as the binder, how does the “ratio of the Mean Fluorescent Intensity for the monoclonal divided by the background staining with the 2nd stage” value read?
**A.** 18.7

**Q.** With B3 as the binder, how does the “ratio of the Mean Fluorescent Intensity for the monoclonal divided by the background staining with the 2nd stage” value read?
**A.** 13.1

**Q.** How did the “ratio of the Mean Fluorescent Intensity for the monoclonal divided by the background staining with the 2nd stage” value turn out when B4 was run?
**A.** 9.85

Molecular target: T1, full-length human DLL3 on cells
Assay: cell-based or functional assay
Remark: another data set of the same source

**Q.** For B1, which “Dy light Dy650 fluorescence in the quenching internalization assay on NCI-H82 cells (% of the Control Reference Monoclonal Antibody)” value is on record?
**A.** 62.9 % of the Control Reference Monoclonal Antibody

**Q.** For B2, which “Dy light Dy650 fluorescence in the quenching internalization assay on NCI-H82 cells (% of the Control Reference Monoclonal Antibody)” value is on record?
**A.** 70.1 % of the Control Reference Monoclonal Antibody

**Q.** With B3 as the binder, how does the “Dy light Dy650 fluorescence in the quenching internalization assay on NCI-H82 cells (% of the Control Reference Monoclonal Antibody)” value read?
**A.** 76.5 % of the Control Reference Monoclonal Antibody

Molecular target: T1, full-length human DLL3 on cells
Assay: cell-based or functional assay
Remark: another data set of the same source

**Q.** B1 was tested. Which “MFI Ratio (4°C / 37°C staining of NCI-H82 cells; relative measure of internalization)” value did it give?
**A.** 1.76

**Q.** Which “MFI Ratio (4°C / 37°C staining of NCI-H82 cells; relative measure of internalization)” value does the source give for B2 here?
**A.** 1.68

**Q.** For B3, which “MFI Ratio (4°C / 37°C staining of NCI-H82 cells; relative measure of internalization)” value is on record?
**A.** 1.67

**Q.** B4 was tested. Which “MFI Ratio (4°C / 37°C staining of NCI-H82 cells; relative measure of internalization)” value did it give?
**A.** 1.56

These binders were tested against T3, full-length mouse DLL3 on HEK293 cells (assay: flow cytometry, HEK293 cells transfected with full-length mouse DLL3, mAb 10 µg/ml).
Description: as §1

**Q.** With B1 as the binder, how does the “ratio of the Mean Fluorescent Intensity for the monoclonal divided by the background staining with the 2nd stage” value read?
**A.** 1.5

**Q.** B2 was tested. Which “ratio of the Mean Fluorescent Intensity for the monoclonal divided by the background staining with the 2nd stage” value did it give?
**A.** 4.7

**Q.** How did the “ratio of the Mean Fluorescent Intensity for the monoclonal divided by the background staining with the 2nd stage” value turn out when B3 was run?
**A.** 3.97

**Q.** Which “ratio of the Mean Fluorescent Intensity for the monoclonal divided by the background staining with the 2nd stage” value does the source give for B4 here?
**A.** 0.99
